In PMC8517210, “Structural and DNA-binding properties of the cytoplasmic domain of Vibrio cholerae transcription factor ToxR”:

Columns and labels:
Conditions in all cases: protein: recombinant; tags: N-terminal His6; chain copies: 2; none in NMR; blunt
cToxR_1-134 [1] = biological target: T1, cToxR_1-134 (Vibrio cholerae, UniProt P15795 1-134); assay: NMR CSP titration; mean as printed; T111 0.15 ± 4e-9, L99 0.63 ± 1e-8
cToxR_1-134 [2] = biological target: T1, cToxR_1-134; assay: fluorescence anisotropy
cToxR_1-134 [3] = biological target: T1, cToxR_1-134; assay: NMR CSP titration; mean as printed; T111 6.82 ± 1.07, L99 5.16 ± 0.46
cToxR_1-134 [4] = biological target: T1, cToxR_1-134; assay: NMR CSP titration; mean as printed; T111 28.26 ± 5.73, L99 27.88 ± 3.01
cToxR_1-134 [5] = biological target: T1, cToxR_1-134; assay: NMR CSP titration; mean as printed; T111 14.21 ± 0.31, L99 14.78 ± 6.62

T1 sequence (P15795 1-134): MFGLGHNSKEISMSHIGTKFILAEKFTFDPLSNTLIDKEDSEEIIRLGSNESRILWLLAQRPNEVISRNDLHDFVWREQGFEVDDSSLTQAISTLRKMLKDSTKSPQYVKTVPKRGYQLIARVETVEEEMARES

Row | Binder | Kd (cToxR_1-134 [1]) [µM] | Kd (cToxR_1-134 [2]) [µM] | Kd (cToxR_1-134 [3]) [µM] | Kd (cToxR_1-134 [4]) [µM] | Kd (cToxR_1-134 [5]) [µM]
1 | toxT (dsDNA) DNA 1: CTCAAAAAACATAAAA DNA 2: TTTTATGTTTTTTGAG | 0.35 | 0.66 ± 0.1 | – | – | –
2 | ompU (dsDNA) DNA 1: ATTTATATCATTTTA DNA 2: TAAAATGATATAAAT | – | 5.49 ± 0.91 | 5.99 | – | –
3 | ctx (dsDNA) DNA 1: GATTTTTGATTTT DNA 2: AAAATCAAAAATC | – | 9.71 ± 0.84 | – | 28.1 | –
4 | ompT (dsDNA) DNA 1: TTTTATGGTATTTGA DNA 2: TCAAATACCATAAAA | – | 12.8 ± 1.27 | – | – | 14.5
